Substitutions are numbered along the chain they refer to. Numbers in names are those of the source.

The target in experiment [1] is T1, human VEGF (hVEGF) (human, UniProt P15692 181-395).
T1 sequence: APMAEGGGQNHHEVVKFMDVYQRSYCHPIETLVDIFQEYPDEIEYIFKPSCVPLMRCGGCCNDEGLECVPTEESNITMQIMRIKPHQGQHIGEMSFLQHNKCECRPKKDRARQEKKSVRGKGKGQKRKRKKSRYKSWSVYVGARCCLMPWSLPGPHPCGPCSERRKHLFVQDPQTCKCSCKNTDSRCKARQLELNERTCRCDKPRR
Kind of experiment: cell-based or functional assay.

Another experiment addresses human VEGF165 (human, UniProt P15692-4 27-191). Kind of experiment: cell-based or functional assay.
The target of experiment [2] is T1, human VEGF (hVEGF). Kind of experiment: SPR BIACORE kinetics.
For experiment [3], the target named is T1, human VEGF (hVEGF). Nature of the experiment: SPR BIACORE T200, single cycle.
Experimental: To confirm the results obtained from the deep mutagenesis scanning, selected mutations were expressed and purified, and their affinity towards VEGF was measured using BIACORE® surface plasmon resonance (SPR) and their thermostability (as assessed by melting temperature, Tₘ) was measured using differential scanning fluorimetry (DSF).
To determine the binding affinity of selected Fab variants, SPR measurement with a BIACORE® T200 instrument was used. Briefly, series S sensor chip CM5 was activated with 1-ethyl-3-(3-dimethylaminopropyl) carbodiimide (EDC) and N-hydroxysuccinimide (NHS) reagents according to the supplier's instructions, and human VEGF (hVEGF) was coupled to achieve 50-80 response units (RU), then following by blocking un-reacted groups with 1 M ethanolamine.
Three-fold serial dilutions of Fab in HBS-P buffer (0.01 M HEPES pH 7.4, 0.15 M NaCl, 0.005% surfactant P20) from low (0.02 nM) to high (50 nM) were injected (flow rate: 30 μl/min). The binding responses on hVEGF were corrected by subtracting of RU from a blank flow cell. The sensorgram was recorded and subject to reference and buffer subtraction before evaluating by BIACORE® T200 Evaluation Software (version 2.0). Association rates (kₒₙ) and dissociation rates (koff) were calculated using a simple one-to-one Langmuir binding model. The equilibrium dissociation constant (Kd) was calculated as the ratio koff/kₒₙ.

B1: G6.31 AAEE (LC-N94A.LC-F83A.HC-A40E.HC-T57E) (Fab, V domains shown)
VH: EVQLVESGGGLVQPGGSLRLSCAASGFTISDYWIHWVRQEPGKGLEWVAGITPAGGYEYYADSVKGRFTISADTSKNTAYLQMNSLRAEDTAVYYCARFVFFLPYAMDYWGQGTLVTVSS
VL: DIQMTQSPSSLSASVGDRVTITCRASQDVSTAVAWYQQKPGKAPKLLIYSASFLYSGVPSRFSGSGSGTDFTLTISSLQPEDAATYYCQQGYGAPFTFGQGTKVEIK
Regarding B1, the “IC50 relative to G6.31, VEGF-induced HUVEC migration assay” value with human VEGF (hVEGF) [1] is 0.9 relative to G6.31.

B2: HA100K-G6.31 AARR (Fab, V domains shown)
VH: B1 VH with E40A, E58T, Y59R, N84R
VL: B1 VL
modifications: free hinge cysteine of the Fab-C heavy chain conjugated to maleimide-functionalized linear hyaluronic acid (Mw 100 kDa)
As to B2, the “qAC50 (equivalent to IC50), pKDR receptor activation assay on KDR-CHO cells” value with human VEGF165 worked out at 0.135 nM.

B3: R19HCLC2 (Fab, V domains shown)
VH: B1 VH with V2E, S7E, G16E, T28E, K43E, K65E, K76E, S85E, T114E
VL: B1 VL with R18E, K42E, S76E
notes: Fab
B3 showed a Kd with human VEGF (hVEGF) [2] of 0.0949 nM.

B4: G6.31 LC-N94A.LC-F83A (Fab, V domains shown)
VH: B1 VH with E40A, E58T
VL: B1 VL
For B4, the “IC50 relative to G6.31, VEGF-induced HUVEC migration assay” value with human VEGF (hVEGF) [1] is 5.1 relative to G6.31.

B5: G6.31 HC-T57E (Fab, name in Kabat numbering, V domains shown)
VH: B1 VH with E40A
VL: B1 VL with A83F, A94N
notes: Fab
As to B5, the kon in the experiment with human VEGF (hVEGF) [3] amounted to 1.93e+08 M⁻¹ s⁻¹.

B6: G6.31 LC-N94A (Fab, V domains shown)
VH: B1 VH with E40A, E58T
VL: B1 VL with A83F
For the molecule B6, the “IC50 relative to G6.31, VEGF-induced HUVEC migration assay” value with human VEGF (hVEGF) [1] is 5.2 relative to G6.31.

B7: G6.31 LC-Q89T (Fab, V domains shown)
VH: B1 VH with E40A, E58T
VL: B1 VL with A83F, Q89T, A94N
notes: Fab
Regarding B7, in the experiment with human VEGF (hVEGF) [3], the kon stood at 1.17e+08 M⁻¹ s⁻¹.

For the origin of these results see patent US20170096479A1 (published 2017).
